Biological target: T1, KAT6A MYST domain (KAT6A 501-784) (human, UniProt Q92794 501-784, autoacetylated K604 (as seen in the structure))
T1 construct: KAT6A (MOZ), human, acetyltransferase (MYST) domain, residues 501-784, NCBI NP_006757.2; also called pHis-MYST domain; not shown: polyhistidine, N-terminal, cleaved
Experiment: crystal structure; KAT6A MYST domain at 8 mg/ml complexed with H3K14-CoA in a 1:10 M ratio, 4 h at 4 °C; sitting drop, 1.25 M NH4SO4, 0.28 M NaCl, 0.1 M HEPES pH 6.4, 21 °C
Conditions: both partners purified

T1 sequence (Q92794 501-784): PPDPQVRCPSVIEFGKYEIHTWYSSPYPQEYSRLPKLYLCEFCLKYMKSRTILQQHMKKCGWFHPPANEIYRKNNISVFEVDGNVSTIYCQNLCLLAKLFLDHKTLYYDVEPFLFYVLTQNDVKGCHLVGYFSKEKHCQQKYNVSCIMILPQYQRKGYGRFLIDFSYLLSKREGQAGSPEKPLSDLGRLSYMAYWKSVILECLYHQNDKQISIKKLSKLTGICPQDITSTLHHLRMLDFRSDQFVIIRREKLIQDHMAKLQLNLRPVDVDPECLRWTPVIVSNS

B1: H3K14-CoA bisubstrate inhibitor (peptide)
peptide: QTARKSTGGKAPRKQLATK
modifications: ε-amino group of K14 covalently attached to CoA through a non-native acetyl bridge; 6-aminohexanoic acid (Ahx) linker on the N-terminus
notes: histone H3 tail, residues 5-23; Made on Rink Amide resin, so the C-terminus is probably an amide (surmised); Only residues 10-17 are resolved in the structure; also called peptidyl-CoA analogue; H3 (5-23) with K14 attached to CoA; source: synthetic peptide (manual Fmoc synthesis on Nova PEG Rink Amide, HPLC purified, coupled to Coenzyme A)
  binding result: binds

— PMC11946513 (The Journal of Biological Chemistry, 2025)
